Results reported in the supplement of paper PMC9112550, “Optimization of the antimicrobial peptide Bac7 by deep mutational scanning” (BMC Biology, 2022).

Test system: Escherichia coli TOP10
Experiment: shrunken log2 fold change of peptide-encoding DNA abundance (4.5 h post-induction vs induction); higher = less antimicrobial activity (less host growth inhibition)
Settings: time post-induction: 4.5 h; library: site-saturation at positions 5, 18, 19, 20
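Also: peptides expressed intracellularly from a pBAD plasmid library in pooled LB shake-flask culture, induced with 0.3% L-arabinose, DNA abundance read by NGS, three biological replicates, DESeq2 with apeglm shrinkage.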

| Sequence | shrunken log2 fold change |
| --- | --- |
| RRIRYRPPRLPRPRPRPIQDPRP | -0.00166 |
| RRIRYRPPRLPRPRPRPIRHPRP | 0.0879 |
| RRIRYRPPRLPRPRPRPISEPRP | -0.0398 |
| RRIRYRPPRLPRPRPRPISLPRP | -0.333 |
| RRIRYRPPRLPRPRPRPITHPRP | -0.211 |
| RRIRYRPPRLPRPRPRPITKPRP | -0.184 |
| RRIRYRPPRLPRPRPRPIVLPRP | -0.213 |
| RRIRYRPPRLPRPRPRPIVMPRP | -0.254 |
| RRIRYRPPRLPRPRPRPIVYPRP | -1.23 |
| RRIRYRPPRLPRPRPRPIWAPRP | -0.089 |
| RRIRYRPPRLPRPRPRPKCPPRP | 0.137 |
| RRIRYRPPRLPRPRPRPKCRPRP | -0.153 |
| RRIRYRPPRLPRPRPRPKDWPRP | -0.176 |
| RRIRYRPPRLPRPRPRPKFDPRP | -0.138 |
| RRIRYRPPRLPRPRPRPKHEPRP | -0.0393 |
| RRIRYRPPRLPRPRPRPKHVPRP | -0.4 |
| RRIRYRPPRLPRPRPRPKIDPRP | -0.344 |
| RRIRYRPPRLPRPRPRPKITPRP | -0.57 |
| RRIRYRPPRLPRPRPRPKMWPRP | -0.113 |
| RRIRYRPPRLPRPRPRPKNLPRP | -0.36 |
| RRIRYRPPRLPRPRPRPKQDPRP | -0.488 |
| RRIRYRPPRLPRPRPRPKSHPRP | 0.49 |
| RRIRYRPPRLPRPRPRPKSKPRP | -0.428 |
| RRIRYRPPRLPRPRPRPKSNPRP | -0.206 |
| RRIRYRPPRLPRPRPRPKSRPRP | -0.552 |

| Sequence | shrunken log2 fold change |
| --- | --- |
| RRIRYRPPRLPRPRPRPKSVPRP | -0.187 |
| RRIRYRPPRLPRPRPRPKTYPRP | -0.781 |
| RRIRYRPPRLPRPRPRPKVAPRP | -0.013 |
| RRIRYRPPRLPRPRPRPLCIPRP | -1.22 |
| RRIRYRPPRLPRPRPRPLEHPRP | -0.26 |
| RRIRYRPPRLPRPRPRPLEVPRP | -0.335 |
| RRIRYRPPRLPRPRPRPLFPPRP | -0.643 |
| RRIRYRPPRLPRPRPRPLGGPRP | -0.0546 |
| RRIRYRPPRLPRPRPRPLHWPRP | -0.211 |
| RRIRYRPPRLPRPRPRPLKLPRP | -0.772 |
| RRIRYRPPRLPRPRPRPLKYPRP | -0.352 |
| RRIRYRPPRLPRPRPRPLMWPRP | -0.0343 |
| RRIRYRPPRLPRPRPRPLNIPRP | -1.1 |
| RRIRYRPPRLPRPRPRPLTPPRP | 0.0282 |
| RRIRYRPPRLPRPRPRPLVFPRP | -0.439 |
| RRIRYRPPRLPRPRPRPLVIPRP | -0.782 |
| RRIRYRPPRLPRPRPRPLVQPRP | -0.49 |
| RRIRYRPPRLPRPRPRPLWYPRP | -0.824 |
| RRIRYRPPRLPRPRPRPLYEPRP | -0.562 |
| RRIRYRPPRLPRPRPRPLYMPRP | -0.441 |
| RRIRYRPPRLPRPRPRPLYWPRP | -0.943 |
| RRIRYRPPRLPRPRPRPMACPRP | -0.000921 |
| RRIRYRPPRLPRPRPRPMCQPRP | -0.394 |
| RRIRYRPPRLPRPRPRPMFKPRP | -0.825 |
| RRIRYRPPRLPRPRPRPMHIPRP | -0.0235 |

| Sequence | shrunken log2 fold change |
| --- | --- |
| RRIRYRPPRLPRPRPRPMHLPRP | -0.00136 |
| RRIRYRPPRLPRPRPRPMHMPRP | -0.113 |
| RRIRYRPPRLPRPRPRPMIRPRP | -0.0021 |
| RRIRYRPPRLPRPRPRPMKSPRP | -0.416 |
| RRIRYRPPRLPRPRPRPMLLPRP | -0.871 |
| RRIRYRPPRLPRPRPRPMMQPRP | -1.94 |
| RRIRYRPPRLPRPRPRPMNDPRP | -0.188 |
| RRIRYRPPRLPRPRPRPMPCPRP | -0.0166 |
| RRIRYRPPRLPRPRPRPMSCPRP | -0.115 |
| RRIRYRPPRLPRPRPRPMSSPRP | -0.0121 |
| RRIRYRPPRLPRPRPRPMTMPRP | -0.615 |
| RRIRYRPPRLPRPRPRPMWAPRP | -0.0298 |
| RRIRYRPPRLPRPRPRPMWLPRP | -0.224 |
| RRIRYRPPRLPRPRPRPNAEPRP | -0.122 |
| RRIRYRPPRLPRPRPRPNCHPRP | -0.507 |
| RRIRYRPPRLPRPRPRPNDHPRP | -1.23 |
| RRIRYRPPRLPRPRPRPNEDPRP | -0.246 |
| RRIRYRPPRLPRPRPRPNEYPRP | -0.519 |
| RRIRYRPPRLPRPRPRPNFPPRP | -0.313 |
| RRIRYRPPRLPRPRPRPNHSPRP | -0.498 |
| RRIRYRPPRLPRPRPRPNHVPRP | -0.219 |
| RRIRYRPPRLPRPRPRPNIIPRP | -1.01 |
| RRIRYRPPRLPRPRPRPNKCPRP | -0.269 |
| RRIRYRPPRLPRPRPRPNKEPRP | -0.0622 |
| RRIRYRPPRLPRPRPRPNKPPRP | -0.18 |

| Sequence | shrunken log2 fold change |
| --- | --- |
| RRIRYRPPRLPRPRPRPNLFPRP | -0.676 |
| RRIRYRPPRLPRPRPRPNMMPRP | -0.645 |
| RRIRYRPPRLPRPRPRPNMSPRP | -0.675 |
| RRIRYRPPRLPRPRPRPNPDPRP | -0.407 |
| RRIRYRPPRLPRPRPRPNPIPRP | -0.711 |
| RRIRYRPPRLPRPRPRPNPKPRP | -0.0294 |
| RRIRYRPPRLPRPRPRPNPSPRP | -0.0272 |
| RRIRYRPPRLPRPRPRPNREPRP | 0.00551 |
| RRIRYRPPRLPRPRPRPNRFPRP | -0.00943 |
| RRIRYRPPRLPRPRPRPNRRPRP | -0.023 |
| RRIRYRPPRLPRPRPRPNRSPRP | -0.496 |
| RRIRYRPPRLPRPRPRPNSAPRP | -0.805 |
| RRIRYRPPRLPRPRPRPNSTPRP | -1.01 |
| RRIRYRPPRLPRPRPRPNYCPRP | -1.16 |
| RRIRYRPPRLPRPRPRPNYMPRP | -0.357 |
| RRIRYRPPRLPRPRPRPPAFPRP | -0.242 |
| RRIRYRPPRLPRPRPRPPCHPRP | -0.285 |
| RRIRYRPPRLPRPRPRPPDDPRP | 0.141 |
| RRIRYRPPRLPRPRPRPPDGPRP | 0.176 |
| RRIRYRPPRLPRPRPRPPEEPRP | 0.0153 |
| RRIRYRPPRLPRPRPRPPEFPRP | 0.00678 |
| RRIRYRPPRLPRPRPRPPFLPRP | -0.178 |
| RRIRYRPPRLPRPRPRPPGWPRP | 0.167 |
| RRIRYRPPRLPRPRPRPPITPRP | -0.834 |
| RRIRYRPPRLPRPRPRPPKFPRP | -0.0892 |

| Sequence | shrunken log2 fold change |
| --- | --- |
| RRIRYRPPRLPRPRPRPPKPPRP | 0.144 |
| RRIRYRPPRLPRPRPRPPKYPRP | -0.97 |
| RRIRYRPPRLPRPRPRPPLTPRP | -0.403 |
| RRIRYRPPRLPRPRPRPPMAPRP | 0.298 |
| RRIRYRPPRLPRPRPRPPMKPRP | -0.137 |
| RRIRYRPPRLPRPRPRPPNQPRP | -0.44 |
| RRIRYRPPRLPRPRPRPPPNPRP | 0.873 |
| RRIRYRPPRLPRPRPRPPQNPRP | 0.191 |
| RRIRYRPPRLPRPRPRPPSSPRP | -0.154 |
| RRIRYRPPRLPRPRPRPPTFPRP | -0.457 |
| RRIRYRPPRLPRPRPRPPVIPRP | -0.0623 |
| RRIRYRPPRLPRPRPRPPVNPRP | -0.153 |
| RRIRYRPPRLPRPRPRPPWHPRP | -0.507 |
| RRIRYRPPRLPRPRPRPPWRPRP | 0.331 |
| RRIRYRPPRLPRPRPRPPWTPRP | -0.343 |
| RRIRYRPPRLPRPRPRPPYFPRP | -0.262 |
| RRIRYRPPRLPRPRPRPQAWPRP | 0.0215 |
| RRIRYRPPRLPRPRPRPQCAPRP | -0.247 |
| RRIRYRPPRLPRPRPRPQCRPRP | -0.23 |
| RRIRYRPPRLPRPRPRPQEHPRP | -0.65 |
| RRIRYRPPRLPRPRPRPQGHPRP | -0.17 |
| RRIRYRPPRLPRPRPRPQGSPRP | -0.19 |
| RRIRYRPPRLPRPRPRPQKIPRP | -0.524 |
| RRIRYRPPRLPRPRPRPQMCPRP | -0.0257 |
| RRIRYRPPRLPRPRPRPQMNPRP | -1.27 |

| Sequence | shrunken log2 fold change |
| --- | --- |
| RRIRYRPPRLPRPRPRPQNHPRP | -0.61 |
| RRIRYRPPRLPRPRPRPQPIPRP | -0.397 |
| RRIRYRPPRLPRPRPRPQQRPRP | -0.261 |
| RRIRYRPPRLPRPRPRPQQVPRP | -0.0456 |
| RRIRYRPPRLPRPRPRPQRIPRP | -0.0956 |
| RRIRYRPPRLPRPRPRPQSPPRP | -0.0354 |
| RRIRYRPPRLPRPRPRPQSWPRP | 0.0202 |
| RRIRYRPPRLPRPRPRPQTEPRP | 0.0019 |
| RRIRYRPPRLPRPRPRPQVDPRP | -0.205 |
| RRIRYRPPRLPRPRPRPQVEPRP | -0.218 |
| RRIRYRPPRLPRPRPRPQYRPRP | -0.148 |
| RRIRYRPPRLPRPRPRPRDAPRP | -0.103 |
| RRIRYRPPRLPRPRPRPRDSPRP | -0.269 |
| RRIRYRPPRLPRPRPRPRFDPRP | -0.51 |
| RRIRYRPPRLPRPRPRPRFEPRP | -0.386 |
| RRIRYRPPRLPRPRPRPRFLPRP | -0.42 |
| RRIRYRPPRLPRPRPRPRFNPRP | -0.808 |
| RRIRYRPPRLPRPRPRPRGLPRP | -0.0424 |
| RRIRYRPPRLPRPRPRPRGSPRP | -0.285 |
| RRIRYRPPRLPRPRPRPRHMPRP | -0.55 |
| RRIRYRPPRLPRPRPRPRHSPRP | -0.127 |
| RRIRYRPPRLPRPRPRPRHWPRP | 0.272 |
| RRIRYRPPRLPRPRPRPRIDPRP | -0.174 |
| RRIRYRPPRLPRPRPRPRKQPRP | -0.129 |
| RRIRYRPPRLPRPRPRPRKVPRP | -0.208 |
